Laboratory results from patent US20250043002A1 (Regeneron, published 2025).

Tests used:
[1] = target: T1, human CD28 on cells (endogenous on Jurkat/NFkB-Luc cells; human primary CD4+ T cells) (human, UniProt P10747 19-220); test: cell-based or functional assay
[2] = target: T1, human CD28 on cells (endogenous on …); test: cell-based or functional assay; remark: listed apart in the source
[3] = target: T2, human PD-L1 expressed on cells (HEK293/hCD20/hPSMA/hPD-L1; WSU-DLCL2/hPD-L1) (human, UniProt Q9NZQ7 19-290); test: cell-based or functional assay
[4] = target: T2, human PD-L1 expressed on cells …; test: flow cytometry, HEK293/hCD20/hPSMA/hPD-L1 cells
[5] = target: T3, hPD-L1-mFc: hPD-L1 extracellular domain (amino acids F19-T239) expressed with the Fc portion of mouse IgG2a … (human; mouse, UniProt Q9NZQ7 19-239); test: blocking ELISA, 0.7 nM hPD-L1-mFc on plate-coated hPD1-hFc
T3 construct: range 19-239; not shown: Fc portion of mouse IgG2a, amino acids E98-K330

[6] = target: T1, human CD28 on cells (endogenous on …); test: flow cytometry, Jurkat/NFkB-Luc cells (endogenous CD28); EC50 NC
[7] = target: human CD28 expressed with a C-terminal murine Fc tag (hCD28.mFc) (human); test: SPR Biacore 25 C, hCD28.mFc captured by anti-mFc, antibody injected
[8] = target: human PD-L1 expressed with a C-terminal myc-myc-hexahistidine tag (hPD-L1.mmH) (human); test: SPR Biacore 25 C, antibody captured by anti-hFc, hPD-L1.mmH injected
human PD-L1 expressed with a C-terminal myc-myc-hexahistidine tag (hPD-L1.mmH) (human), sequence (chain, as listed by the source limits assumed): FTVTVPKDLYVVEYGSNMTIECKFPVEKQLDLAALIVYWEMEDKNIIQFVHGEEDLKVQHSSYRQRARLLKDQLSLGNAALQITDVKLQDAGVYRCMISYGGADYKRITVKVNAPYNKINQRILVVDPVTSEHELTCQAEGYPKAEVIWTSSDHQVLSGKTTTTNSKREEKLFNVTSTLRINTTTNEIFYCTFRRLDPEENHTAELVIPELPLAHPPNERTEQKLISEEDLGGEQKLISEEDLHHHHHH

T2 sequence (Q9NZQ7 19-290): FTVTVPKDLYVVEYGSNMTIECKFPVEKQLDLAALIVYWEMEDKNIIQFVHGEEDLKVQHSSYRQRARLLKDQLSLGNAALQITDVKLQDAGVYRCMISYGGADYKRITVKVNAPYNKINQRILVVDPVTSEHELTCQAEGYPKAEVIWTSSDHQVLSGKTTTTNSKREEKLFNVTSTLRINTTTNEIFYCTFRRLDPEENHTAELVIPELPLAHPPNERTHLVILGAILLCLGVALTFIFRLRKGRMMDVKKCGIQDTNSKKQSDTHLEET
T3 sequence (Q9NZQ7 19-239 limits assumed): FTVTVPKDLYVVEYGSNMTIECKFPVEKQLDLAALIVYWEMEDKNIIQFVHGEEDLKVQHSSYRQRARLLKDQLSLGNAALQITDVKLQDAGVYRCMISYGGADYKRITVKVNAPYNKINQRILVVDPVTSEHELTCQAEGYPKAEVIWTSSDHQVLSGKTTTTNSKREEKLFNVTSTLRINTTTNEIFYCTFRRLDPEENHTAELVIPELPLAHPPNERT

B1: mAb9364 (antibody, V domains shown)
VH: EVQLVESGGGLVQPGRSLRLSCAASGFTFDDYALHWVRQAPGKGLEWVSGISWTGGTIDYADSVKGRFTISRDNAKNSLYLQMSSLRTEDTAIYYCTRDIRGNWKYGGWFDPWGQGTLVTVSS
VL: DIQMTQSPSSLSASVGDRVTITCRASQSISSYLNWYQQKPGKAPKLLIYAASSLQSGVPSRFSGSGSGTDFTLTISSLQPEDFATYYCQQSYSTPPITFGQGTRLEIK
notes: Bivalent parental antibody; also called parental bivalent anti-PD-L1 antibody; PD-L1 bivalent control antibody
[1]
  NFkB-luciferase MAX (RLU), Jurkat/NFkB-Luc + HEK293/hCD20/hPSMA: 44400 RLU
  NFkB-luciferase MAX (RLU), Jurkat/NFkB-Luc + HEK293/hCD20/hPSMA + CD20×CD3: 180000 RLU
  NFkB-luciferase MAX (RLU), Jurkat/NFkB-Luc + HEK293/hCD20/hPSMA/hPD-L1: 57100 RLU
  NFkB-luciferase MAX (RLU), Jurkat/NFkB-Luc + HEK293/hCD20/hPSMA/hPD-L1 + CD20×CD3: 165000 RLU
[2]
  IL2 release MAX (RLU), CD4+ T cells + HEK293/hCD20/hPSMA: 4360 RLU
  IL2 release MAX (RLU), CD4+ T cells + HEK293/hCD20/hPSMA + CD20×CD3: 8980 RLU
  IL2 release MAX (RLU), CD4+ T cells + HEK293/hCD20/hPSMA/hPD-L1: 3680 RLU
  IL2 release MAX (RLU), CD4+ T cells + HEK293/hCD20/hPSMA/hPD-L1 + CD20×CD3: 10900 RLU
[3]
  AP-1 luciferase EC50, WSU-DLCL2/hPD-L1 + Jurkat/AP1-Luc/hPD1: 6.51 pM
  AP-1 luciferase MAX (RLU), WSU-DLCL2/hPD-L1 + Jurkat/AP1-Luc/hPD1: 1.04e+06 RLU
[4]
  EC50: 0.73 nM
  Fold Change (max MFI over secondary antibody alone): 401 fold
  Max gMFI: 620000 gMFI
[5]
  % Blocking at 100 nM mAb: 99%
  IC50: 0.52 nM
[6]
  Fold Change (max MFI over secondary antibody alone): 4.7 fold
[7]
  90 nM mAb Bind (RU): -0.9 RU
[8]
  30 nM hPD-L1.mmH Bind (RU): 112 RU
  Kd: 0.13 nM
  koff: 7.42e-05 s⁻¹
  kon: 571000 M⁻¹ s⁻¹
  t1/2: 156 min
